From the nanobody polyreactivity screen of Harvey et al. (2022) come the findings set out here.

This series can be described thus: yeast display, Sf9 membrane polyspecificity reagent, FACS + sequencing; frameworks hold sequencing errors. In a few lines: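 In a synthetic yeast display library (Saccharomyces cerevisiae BJ5465), nanobody expression was induced with galactose for 36–48 hours. FACS gates were set low and high (top ~1%) using anti-HA fluorescence for expression and streptavidin fluorescence for binding of the Sf9 membrane reagent. Each polyreactivity label is drawn from the gate of origin.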
In the case of “QVQLVESGGGLVQAGGSLRLSGAASGFIFVRYAMGWYRQAPGKERELVAAITRRGGSTHYADSVKGRFTISRDNAKNTVYLQMNSLTPEDTAVYYCAAGRQYYYLDRFPRVQGDYWGQGTQVTVSS”, the “polyreactivity (PSR sort gate)” value is reported as “high polyreactivity”. Turning to “QVQLVESGGGLVQAGGSLRLSGAASGFISFPYAMGWDTQATGKERELVASITRSGGNTYYADSVKGRFTISRDNEKNTVYLQMNSLKPEDTAVYYCNAQIYTYRSGRGYSRMDYWGEGTQVTVSS”, the “polyreactivity (PSR sort gate)” value is listed as “high polyreactivity”. “QVQLVESGGGLVQAGGSLRLSGAASGIIVPDYAMGWNKQAPGKERELVPDISFSAGSTYYADSVKGRFTISRDNAKNTVYLQMNSLKPDDTAVYVCAADQTSSYYDPWGDYWGQGTQVTVSS”: the “polyreactivity (PSR sort gate)” value is reported as “low polyreactivity”. As to “QVQLVESGGGLVQAGGSLRLSGAASGRTFPYNTMGWYRQAPGKEWELVASITYTDGSTSYAYSVKGRFTISRDNAKNTVYLQMNCLKPEDTAVYYCAADYYAHQDYRFDYCGQGTQVTVSS”, the “polyreactivity (PSR sort gate)” value is on record as “low polyreactivity”.

As to “QVQLVESGGGLVQAGGSLRLSGAASGRTFYDYAMGWYRQAPGKERELVAAISWIDGSTYYADSVKGRFTISRDNAKNTVYLLMNSLKPEDTAVYYCAARRLVYYRKVKELDYWGQGTQVTVSS”, the “polyreactivity (PSR sort gate)” value was “high polyreactivity”. On to “QVQLVESGGGLVQAGGSLRLSGAASGSILWSYALGCYIQAPGKERELVAAIRSGGSTYYADSVKGRFTISRDNAKNTVYFQMNSLKPEDTAVLYCNATYAPLFEYDYWGQGTQVTVSS”, for which the “polyreactivity (PSR sort gate)” value is given as “low polyreactivity”. In the case of “QVQLVESGGGLVQAGGSLRLSIDASGRIFYPYVMGWYRQAPGQERELVAAISDSTGSTYYADSVKGRFTISRDNAKITVYLEMNSQKPEDTAVFYCAAGWFYATYWRFYYCGQGTQVTVSS”, the “polyreactivity (PSR sort gate)” value was “low polyreactivity”. Take “QVQLVESGGGLVQAGGSLRLSLLPPDSPSTTMLWDGIDRRLGKKGSWLPVFLPSGGTTYADSVKGRFTISRDNAKNTVYLQMNSLKPEDTAVYYCAASYYRTRWSWMYYWGQGTQVTLSS”: the “polyreactivity (PSR sort gate)” value is given as “low polyreactivity”.

As for “QVQLVESGGGLVQAGGSLRLSRAASGATFYFNAMGWYSQAHGKERELVAGITYSGDSTYYADSVKGRFTLSRDNAKNPVYLQMNSLKPEDTAVYYCAADVDYDLDGDYWGQGTQVTVSS”, the “polyreactivity (PSR sort gate)” value is recorded as “low polyreactivity”. Next, “QVQLVESGGGLVQAGGSLRLSSAASGFIFATYAMGWYRQAPGTERELVAAISQSGGGTYYADSVKGRFTISRDNAKNTVYLQMNSLKPEDTAVYYCAVDVSEWYHYDLYYWYYYWGQGTQVTVSS”: “high polyreactivity”. Consider “QVQLVESGGGLVQAGGSLRLSSAASGFIFSTYAMGWYRQAPGKEREFVAAITRTGTRTYYADSVKGRFTISRDNAKNTVYLQMTSLKPEDTAVYYCAARAGVEAYGSRYGYWGQGTQGTVSS”, for which the “polyreactivity (PSR sort gate)” value is reported as “high polyreactivity”. Next, “QVQLVESGGGLVQAGGSLRLSSAASGFIFTYYAMGWYRQAPGKERELVAVITRGDSTYYADSVKGRFTISRDNAKNTVYLQMNSLKPEDTAVYYCAARGYFGWSGYSVPSTAYGYWGQGTQVTVSS”: “high polyreactivity”. Consider “QVQLVESGGGLVQAGGSLRLSSAASGFTFRGYGMGWYRQAPAKERELVAAITSSGGSTYYADSVKGRFTISRDNAKNTVYLQMNSLKPEDTAVYYCAADRYTRYRYNYWGQGTQVTVSS”, for which the “polyreactivity (PSR sort gate)” value is recorded as “high polyreactivity”. Consider “QVQLVESGGGLVQAGGSLRLSSAASGFTFVSYAMGWYRQAPGKERELVASISKRGGTTYYADSVKGRFTISRDNAKKTVFLQMNSLKPDDTAVYYCNARDTRRYVTYDSGYDYWGQGTQVTVSS”, for which the “polyreactivity (PSR sort gate)” value was “high polyreactivity”. On to “QVQLVESGGGLVQAGGSLRLSSAASGFTFYWYAMGWYRQAPGKEREFVAAIDQSGGSTYYADSVKGRFTISRDNAKNTVYLQMNSLKPEDTAVYYCAARYILWDGYSWTEFDYWGQGTQVTVSS”, for which the “polyreactivity (PSR sort gate)” value is “low polyreactivity”. Next, “QVQLVESGGGLVQAGGSLRLSSAASGGIFSSYAMGWYRQAPGKERELVAAISGSGGRTYYADSVKGRFTISRDNAKNTVYLQMNSLKPEDTSVYYCAAYPVNRVDYRYDYWGQGTQVTVSS”: “high polyreactivity”; “QVQLVESGGGLVQAGGSLRLSSAASGGIFWYYTMGWYRQAPGKERELVAAISWSGGRTYYADSVKGRFTISRDNAKNTVYLQMNSLKPEDTAVYYCAANFRGVLGWYHYEYWGQGTQVTVSS”: “high polyreactivity”. Next, “QVQLVESGGGLVQAGGSLRLSSAASGGSFKRYVMVWYRQAPGKERELVAAITWSGGSTYYADSVKGRFTISRDNAKNTVYLQMNSLKPEDTAVYYCNVVTRWVTAAGYDYWGQGTQVTVSS”: “high polyreactivity”; “QVQLVESGGGLVQAGGSLRLSSAASGGTFGGYTRRWSRQAPGKERELVAAITRRGSSTFYADSVKGRFTISRDNAKKTVYLQMNSLKPEDTAVYYCAARYIVYLRTQSERYNSYDYWAQGTQVTVSS”: “high polyreactivity”; “QVQLVESGGGLVQAGGSLRLSSAASGIFRWNTKGWYRQAPRKERELVATISWGGGTTYYADSVKGRFTISRDNAKNTVYLQMNSLKPEDTAVYYCAKVYAVRIGMRYSYWGHGTQVTVSS”: “low polyreactivity”. Turning to “QVQLVESGGGLVQAGGSLRLSSAASGITFYFNAMRWYRQATGKVSEFVAAISFSGGGTYYADSVKGRFTISRDNAKITDYLDMNSLKPADTAVYYCNADYGRGTLRSIYDYWGQGTQVTVTS”, the “polyreactivity (PSR sort gate)” value is given as “low polyreactivity”. Regarding “QVQLVESGGGLVQAGGSLRLSSAASGITIRYNDMGWYRQAPGKERELVAAITFSGGSTYYPDSVKGRFTISRDNAMNTVYLQMNSLKPEDTAVYYCAKLGSTSSRGNYDYWGQGTQVTVSS”, the “polyreactivity (PSR sort gate)” value is “low polyreactivity”.

As to “QVQLVESGGGLVQAGGSLRLSSAASGITSYGYAMGWNRQAPGKERELVASISWTGGNTYADSVKGRFTISRDNAKNTVYLQMNSLFPEDTAVYYCNAGRSWDYWYGYDYWGQGTHVTVSS”, the “polyreactivity (PSR sort gate)” value is on record as “low polyreactivity”. On to “QVQLVESGGGLVQAGGSLRLSSAASGITYYGYAMGWYRQAPGKERELVAAISKSGGSTHYADSVKGRFTISRDNAINTVYLQMYRLKPEDTAVYYCAAAYWTRLRRMDYWGQGTQVTVSS”, for which the “polyreactivity (PSR sort gate)” value is reported as “low polyreactivity”. On to “QVQLVESGGGLVQAGGSLRLSSAASGLILYSYAMGWYRQAPGKERELVADISSGGITNYADSVKGRFTISRDNAKNTVYLQMNSLKPEDTAVYYCAADTRPVNYILYDYWGQGTQVTVSS”, for which the “polyreactivity (PSR sort gate)” value is “low polyreactivity”. As to “QVQLVESGGGLVQAGGSLRLSSAASGLTFAYYTMGWYRQAPGKERELVAAISRSGSGTYYADSVKGRFTISRDNAKNTVYLQMNSLKPEDTAVYYCATRYYLKFLDGYNYWGQGTQVTVSS”, the “polyreactivity (PSR sort gate)” value is “high polyreactivity”.

With “QVQLVESGGGLVQAGGSLRLSSAASGLTFESYAIGWYRQAPWKERELVAAISFSCGSTNYADAVKGRFTISRDNAKNTVYLQLNSLKPEDTAVYYCAAEYGSPRGTGYDSWGQGTQVTVSS”, the “polyreactivity (PSR sort gate)” value is listed as “high polyreactivity”.

Regarding “QVQLVESGGGLVQAGGSLRLSSAASGNIFVYYAKGLYRHAPGKERELVAAISKRGGSTYYADSVKGRFTISRDNAKNTVYLQMNSLKPEDTAVYYCAALGHVDDSIYDYWGQGTQLTVSS”, the “polyreactivity (PSR sort gate)” value is “high polyreactivity”. “QVQLVESGGGLVQAGGSLRLSSAASGRIFEGYAMGWYRQAPGKERELVAAISSGGSTYYADSVKGRFTISRDNAKNTVYLQMNSLKPEDTAVYYCNAAHSVVSHGPGAGLEMDYWGQGTQVTVSS”: the “polyreactivity (PSR sort gate)” value is “low polyreactivity”.

Consider “QVQLVESGGGLVQAGGSLRLSSAASGRIFGVYAMGWYRQAPGKERELVAAITRSGGSTYYADSVKGRFTISRDNAKNTDYLQMKSLKPEDTAVYYCNRDFRGLAYSDRYDYWGQVTQVTVSS”, for which the “polyreactivity (PSR sort gate)” value is reported as “low polyreactivity”.

Regarding “QVQLVESGGGLVQAGGSLRLSSAASGRIFHPYAMGWYRPAPGQERELVAAITNSGGITYADSVKGRFTISRGNAKNTVYLQMNSLKPEDTAVYYCNTATNRFHYKYRKPYDYWGQGTQVTVSS”, the “polyreactivity (PSR sort gate)” value was “low polyreactivity”.

Turning to “QVQLVESGGGLVQAGGSLRLSSAASGRIFKRYTMGSYRQAPGKERELVAANTKRADRTNYADSVNGRFTISRDNAKNTVYLQMNSLKAVDTAVYYCNAEGQNDHPSNGYISYNYDYWGQGTQVTVSS”, the “polyreactivity (PSR sort gate)” value is “low polyreactivity”. The value for “QVQLVESGGGLVQAGGSLRLSSAASGRIFQLYTMGWYRQAPGKEREMVAAITSGTSTSYADSVKGRFTISRDNAKNSVYLQMNSLKPEDTAVYYCNKGSVSYCSVFVPYESDYWGQGTQVTVSS” was “low polyreactivity”; that for “QVQLVESGGGLVQAGGSLRLSSAASGRIFRINAMGWYRQAPGKERELVADITSGGSTNYADSVKGRFTISRDNAKNTVYLQMNSLKPEDTAVYYCAAAYVTYRTRLDYWGQGTQVTVSS” was “low polyreactivity”. On to “QVQLVESGGGLVQAGGSLRLSSAASGRIFRPYDMGWYRQAPGKERELVAAITQSGGITSYADSVKGRFTISRDNAMNTVYLQMNSLTPEDTAVYYCASTSRYTRSHYDWYDYWGQGTQVTVSS”, for which the “polyreactivity (PSR sort gate)” value was “low polyreactivity”. For the sequence “QVQLVESGGGLVQAGGSLRLSSAASGRIFRRNTMGWYRQAPGKERELVAAITYSGGSTYYADSVKGRFTISRDNAKNTVYLQMNSLKPEDTAVYYCAADTGFYYWYDYWGQGTQVTVSS”, the “polyreactivity (PSR sort gate)” value is reported as “low polyreactivity”. Next, “QVQLVESGGGLVQAGGSLRLSSAASGRIFSDNVMGWYRQAPGKERELVATITSTGGTYYADSVKGRFTISRDNAKNTVYLQMNSLKPEDTAVYYCNKATLADWWLYPRYNYWGQGTQVTVSS”: “low polyreactivity”. Next, “QVQLVESGGGLVQAGGSLRLSSAASGRIFSINVMGWYRHAPGKERELVAAISKRGGSTYYADSVKGRFTISRDNAKNTVYLQMNSLKPEDTAVYYCAVDRYSTDRVKTSYGYDYWGQGTQVTVSS”: “high polyreactivity”. Consider “QVQLVESGGGLVQAGGSLRLSSAASGRIFTINAMGWYRQAPGKERELFASSRSTGGSTYYADSVKGRFTISRDNAKNTFYLQMYSLKPVDTAVYYCDAQYANSIDYRSSYRRDYWGQGTQVTVSS”, for which the “polyreactivity (PSR sort gate)” value was “low polyreactivity”. For “QVQLVESGGGLVQAGGSLRLSSAASGRIFYFNARGWYRQAPGKARELVAGISSGGSTDYADSVKGRFTISRDNAKNTVDLQMNSLKPEDTAVYYCATRRSRYSYSGYWGQATQVTVSS”, the “polyreactivity (PSR sort gate)” value is on record as “high polyreactivity”.
